Reference: the RNAGym collection of RNA variant scans (doi:10.7554/elife.90254)

B1: LINE1-mini (parent)
chain: GGCAGAGCUCAACACAGCGUGGCAAAGUGGCUGUGGCUAGACUGCC

Variants of: B1
Experiment: self-cleavage, relative activity (ratio to wild type); higher = more cleavage; in vitro, sequencing; the parent is a self-cleaving ribozyme

Variant	self-cleavage
U9C C37G	0.01
G30C G44A	0.2
U38C A41G	0.11
C23U G29A	1.11
G2U G44A	0.08
G19A U43C	0.18
U32C C37A	0.15
U32C C37U	0.07
C3U G36A	0.34
C15A G22C	0.06
A12G A39C	0.04
A12G A39G	0.01
C31A C45U	0.13
G27A U34A	0.19
A6C C8U	0.51
C18G A24C	0.17
G1A G19A	1.77
A25G C37A	0.05
C18G A41C	0.03
G22A A24G	1.53
G5C C37G	0.05
C31A G44C	0.04
C10G C42U	0.03
C8A C13G	0.36

Variant	self-cleavage
U9G U43C	0.04
A25G G44U	0.28
U9G A26C	0.21
A14G G27A	0.83
G19C U20C	0.61
G2U G21C	0.09
A14C G19A	0.1
C42U G44A	0.16
U9A U38A	0.08
A6G G19C	0.05
C10U U34C	0.08
U9C U32C	0.04
U9C A24C	0.02
A11G C46G	0.02
G27A G30A	2.28
A6G C18A	0.11
C31U C46A	0.15
A16G G27A	0.78
U9G U20C	0.05
A26U G36U	0.09
G2A C3U	0.9
G2A C15U	0.5
C23U G44C	0.48
A26U C37G	0.05

Variant	self-cleavage
G5U	0.14
G19U G27C	0.75
C18A C23A	1.02
U9G U34A	0.04
C23G U28G	0.89
G30U G36U	0.05
U28A C37U	0.04
G5C A24U	0.07
C8A A41G	0.29
G5A G35U	0.26
G21A G44A	0.98
A16C U20A	0.05
C13G C15A	0.1
U28G U38A	0.19
G40C A41C	0.09
A12U G40A	0.21
U43C G44A	0.11
G2A C13U	0.32
G1A U9A	0.34
C46G	0.99
G21C G27U	0.84
A24C C37A	0.03
G36U C46A	0.1
G27C G35A	0.09

Variant	self-cleavage
G5U G33C	0.06
A25C U32C	0.25
A25G C45U	0.45
G22U U32A	0.13
G2U G29A	0.09
A6G G29U	0.09
A6C G17A	0.17
G5C U38C	0.05
G1A C15A	0.06
G5C C42U	0.05
A16G C46G	0.68
U28G U34A	0.26
A16U G30C	0.45
G29U A39U	0.7
G2A A4C	0.67
G7C G33A	0.06
C8A G21A	0.63
A11U G19U	0.12
A14G A41U	0.77
G5A G19A	0.29
G21U C45A	0.68
U9C G30C	0.04
A11G A24C	0.03
A11C U43G	0.03

Variant	self-cleavage
C15U C18U	0.47
A12C G30C	0.04
C3U U34C	0.07
G17C A41C	0.04
G19A G33A	0.11
A6G A14C	0.14
C10G U34G	0.03
A16U G44C	0.03
A16U G44A	0.05
A11U G22A	0.34
G7C G19U	0.07
G7C A39G	0.08
G7C A39C	0.21
A24G G29C	0.48
A16U G29C	0.53
C13U C18A	0.07
G19A A26G	0.98
G2C U28C	0.09
C3G A6U	0.79
C31U A39U	0.13
G1C A26G	0.09
A6C C18G	0.24
A16C G21A	0.14
G1U G35A	0.08

Variant	self-cleavage
A16G G30C	1.19
C8A A16C	0.25
U9C A25U	0.04
G19A U20G	0.59
G30A U43C	0.22
G5A C37U	0.13
A12U C42G	0.04
A12U C42U	0.13
G7U G33C	0.15
A14G G35C	0.05
A6U A12U	0.17
U32C G36U	0.06
A14G A39G	0.1
U9A G30U	0.08
A6U A39G	0.04
U34C C42U	0.12
C15A G33U	1.81
U9A A26U	0.21
A11G A14U	0.03
A14U A24U	0.42
G2U U28G	0.04
G19C U43G	0.02
A14C A16G	0.1
A4G C8A	0.32

Variant	self-cleavage
G19C G44C	0.12
C18G U43C	0.06
C18G U43G	0.13
U9A C15G	0.25
U20C A24G	0.44
A6C G30U	0.9
G21A U43A	0.17
G5C C10A	0.05
A24C U43G	0.37
U9A G29C	0.05
U32C G35U	0.12
A4G G5A	0.15
G19A G27A	1.19
G36C C46A	0.13
A14U G19A	0.53
G36C G40U	0.18
C3G G27A	0.21
C18A C37U	0.07
C23A A26C	0.98
C8A A26C	0.26
U43G C45U	0.19
U43G C45A	0.32
C10G G22U	0.11
G2A G5C	0.06

Variant	self-cleavage
G29C G36A	0.02
G1A C37U	0.08
A25G U43C	0.1
C15U G29U	1.42
U9C A12C	0.04
A6C A16G	0.22
A6C A16U	0.09
G19U A41C	0.03
G21A C23U	1.02
C10G U32G	0.02
G21U A39C	0.28
U34A C42U	0.05
C31G A39C	0.12
G27C U34C	0.08
C8G G36C	0.08
A14U A25G	0.1
A26G C46A	1.08
G5U A16U	0.06
U9A A12C	0.03
G29A U34A	0.19
C8U U28C	0.2
G29A A39U	0.93
A25G A39U	0.81
C3U U20G	0.28

Variant	self-cleavage
C10A C45G	0.03
C10A C45A	0.04
G7A U28A	0.16
G22A G44A	0.97
A4U G7C	0.18
A4U G7A	0.31
G27U G35C	0.09
U9A G21U	0.15
G7C	0.13
A26G C31G	0.06
C18U C31U	0.04
G35C A41G	0.08
A11C A25G	0.08
U38A G40U	0.18
G19U C31G	0.05
A16C C37A	0.06
G21A C46A	1.96
C8A U38A	0.26
C13A C45U	0.15
G2A A14G	0.81
G19U U20A	0.86
C23G C31U	0.2
C10U G17U	0.33
G21A G35U	0.35

Variant	self-cleavage
C10U U43C	0.03
G7C C10G	0.03
G7C A12U	0.07
G7C A12C	0.03
C37U A41U	0.06
C3G A14G	1.31
G17C G22A	1.3
U32C A39U	0.15
G5U C42A	0.38
U20C A41G	1
G7A A24G	0.16
A16G G40C	0.07
A12U G19A	0.42
G30A C37G	0.06
A24G	1.1
A6C C37U	0.12
C8G U43A	0.03
G17A G33A	0.05
G22U U38A	0.46
U9G G33U	0.08
C13G C45G	0.23
A4U C10U	0.19
G22A U38G	0.01
C13U C42G	0.08

Variant	self-cleavage
C15G G30C	0.08
G22C G36A	0.05
C31G U38A	0.09
U38G A39G	0.02
C15G A39G	0.03
G7C G27A	0.09
C13A C42U	0.09
G27U C45G	0.37
G17U U34C	0.05
G2A U38C	0.7
A11U U20C	0.07
C10G G27U	0.08
G1A C45G	0.34
A11C A16C	0.01
G7U G40A	0.16
G5A U38A	0.16
G21U U43C	0.2
C42A C46G	0.07
G33A U38A	0.13
U9A C45G	0.32
C3A C10A	0.07
G21A G40U	0.19
A16U U20C	0.26
C8G A12C	0.02

Variant	self-cleavage
A12U G29C	0.05
A25C C31A	0.09
A24U U34A	0.08
G17C U38C	0.15
U20G C37A	0.02
A26C A41C	0.04
G35U A39G	0.22
A4C C23A	0.25
A11G G19C	0.03
A12G A14G	0.04
C8G G22C	0.06
G19A G21C	0.39
U38G C45G	0.05
A4U A11C	0.04
U20A A39G	0.06
C18G U34A	0.05
G5U G35U	0.15
G5C G30C	0.07
G7C C15A	0.14
A4C U9A	0.18
G33A A41C	0.07
C8U G35A	0.32
G29C U34A	0.28
A41C C45G	0.1

Variant	self-cleavage
A11G A39G	0.03
A24C A41G	0.25
U20A U43C	0.13
G22A A26U	0.76
G2C C13A	0.08
C8U A39C	0.2
A39G C46A	0.14
A4C G40U	0.13
C8A C42U	0.24
A25U U34G	0.16
C8U C31A	0.21
A4C A12U	0.17
G17U G35A	0.07
G29U G44U	0.31
A4G C37U	0.13
U38G A41U	0.04
G1C G17A	0.02
C3U G30A	0.75
G22U C42U	0.39
C31A U32G	0.05
C3G C42U	0.31
C15A C46A	0.09
C37G C42A	0.09
G7U U20G	0.08

Variant	self-cleavage
C23U A24C	0.71
G22A A41G	0.31
C3U A12C	0.06
G30C C46G	0.59
G19C G36C	0.05
C42A G44C	0.12
G2U C3U	0.37
G5C G33A	0.09
U9C U28A	0.03
A26G G33U	0.07
A12C G19A	0.02
A14U G40A	0.05
G36A A41G	0.2
A11U U32G	0.03
C37G A39G	0.02
C3U C15U	0.32
A6U C15A	0.16
A12U C31U	0.09
G7A A25C	0.14
C15G G44A	0.03
A4C U28G	0.18
G1A G17U	0.13
